# Assay results taken from the supplement of paper PMC6755084.
# Tested on: F1*sub RNA substrate (template-directed ligation)
# Assay: fraction ligated after 30 min (ligated reads / total reads); higher = more ligase activity; sequences stand for … in GAGACCGCAACTGAAAAGTTGT…AGTTCTGCACGTAGAAGCAAAAGGC
# Settings: 42 °C
# How it was run: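 The ligase ribozyme variants were produced by PCR amplification of oligo-pool templates, T7 transcription and purification on gel. Their ligated and unligated forms were gel-separated, then reverse transcribed with barcoded primers before MiSeq sequencing. Core bases were filtered at a quality of ≥20, and fraction ligated per variant was ligated reads over total reads.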
row,Sequence,fraction ligated
1,TATCCTTGTCGTAAGACACTGGATGGGTTGA [3d1097],0.756
2,ATCACTTGCGTAGACACTTTGGATGGGTTGA [3d143],0.818
3,TATACTTGTCGTAAGAACTTTGGATGGGTTGA [2d80],0.786
4,TACCTTGTGTAAGACACTTTGGATGGGTTGA [3d531],0.795
5,TTCCTTGTCGTAAGACACTTTGGATGGGTTG [3d316],0.731
6,ATCACTTGTCGTAAACACTTTGGATGGGTTG [3d220],0.75
7,TTACTTGTCGTAAGACACTTTGGATGGTTGA [3d295],0.323
8,TATCACTTGCGTGACACTTTGGATGGGTTGA [3d1626],0.829
9,TATCACTTGTCAAGACACTTTGATGGGTTGA [3d1817],0.715
10,ATCATTGTCGTAGACACTTTGGATGGGTTGA [3d92],0.761
11,TTCACTTTCGTAAGACACTTTGGAGGGTTGA [3d367],0.0281
12,TATCACTTGTCGTAGACACTTGATGGGTTGA [3d2036],0.657
13,TATCACTTGTCGTGACCTTTGGATGGGTTGA [3d1984],0.784
14,TATCACTTGTCGAAGACATTTGGATGGTTGA [3d1954],0.133
15,TATCACTGTCGTAGCACTTTGGATGGGTTGA [3d1387],0.881
16,ATCACTTGTCTAAGACACTTTGGATGGGTTA [3d183],0.656
17,TTCACTTGTCGTAAGACACTTTGGATGGTTG [3d505],0.681
18,TATCACTTGTCGAAGAACTTGGATGGGTTGA [3d1936],0.794
19,ATCCTTGTCGTAAGACACTTTGGTGGGTTGA [3d81],0.169
20,TTCACTTGTCGTAAGACACTTTGTGGGTTGA [3d492],0.0104
21,TATCACTGTCTAAGACACTTTGGATGGTTGA [3d1369],0.239
22,TATCACTTGTGTAAGACACTTGGATGGTTGA [3d1790],0.0286
23,TTCACTTGTGTAAGACACTTGGATGGGTTGA [3d395],0.161

row,Sequence,fraction ligated
1,TATACTTGTCGTAAACCTTTGGATGGGTTGA [3d884],0.494
2,TATCACTGTCGTAAGACATTGGATGGGTTGA [3d1433],0.818
3,TATCATTGTGTAAGACACTTTGGATGGTTGA [3d1184],0.0387
4,TAACTTGTCGTAAGACACTTGGATGGGTTGA [3d521],0.266
5,TATCACTTGTTAAGACACTTTGGATGGGTTGA [2d179],0.859
6,TATCACTTGTGTAAGACACTTTGGGGGTTGA [3d1799],0.0501
7,TACACTTGTCGTAAGACACTTTGAGGGTTGA [3d723],0.0442
8,TATCACTTGTGTAAGACACTTTGGATGGTTGA [2d191],0.198
9,TATCACTTGTTAAGACACTTTGGATGGGTTG [3d1717],0.83
10,TATCCTTGTGTAAGACACTTTGGATGGGTTGA [2d93],0.792
11,TATCACTTGTCGAAGACACTTTGGTGGGTTG [3d1973],0.0779
12,TATCACTTGTCGTAAGACACTTGGAGGGTTG [3d2250],0.00522
13,TTACTTGTCGTAAACACTTTGGATGGGTTGA [3d286],0.00498
14,TATCCTTGTCGTAAGACCTTTGGTGGGTTGA [3d1085],0.212
15,TATCACTTGCGTAAGACACTTTGGATGGTTA [3d1701],0.227
16,TATCATTGTCGTAAGACACTTTGGTGGTTGA [3d1283],0.0252
17,TATCACTTGTCGAGACACTTTGGTGGGTTGA [3d1910],0.0759
18,TATCCTTGTCGTAAGACACTTTGGATGGGTTGA [1d5],0.789
19,TATCACTTGTGTAGACACTTTGATGGGTTGA [3d1738],0.824
20,TATACTTGTGTAAGAACTTTGGATGGGTTGA [3d833],0.814
21,ATCCTGTCGTAAGACACTTTGGATGGGTTGA [3d67],0.683
22,TATACTTTCGAAGACACTTTGGATGGGTTGA [3d798],0.451
23,TATCCTTGTCGTAAGACCTTTGGAGGGTTGA [3d1086],0.0073

row,Sequence,fraction ligated
1,TATCACTTGCGTAAGCACTTTGGAGGGTTGA [3d1655],0.178
2,ATCACTTGTCGTAAGACACTTTGGAGGGTTGA [2d21],0.189
3,ATCATTGTCGTAAGACCTTTGGATGGGTTGA [3d96],0.717
4,TACCTTGTCGTAAGACCTTTGGATGGGTTGA [3d538],0.734
5,TACACTGTCGTAAGAACTTTGGATGGGTTGA [3d575],0.162
6,TTCACTTGTCGAAGACACTTTGATGGGTTGA [3d423],0.17
7,TACACTTGTGTAAGCACTTTGGATGGGTTGA [3d621],0.101
8,TATCACTTTCTAAGACATTTGGATGGGTTGA [3d1485],0.818
9,ATCCTTGTCGTAAGACCTTTGGATGGGTTGA [3d77],0.703
10,TATCACTTGTCGAAGACCTTGGATGGGTTGA [3d1943],0.768
11,TATCACTTGTCGAAGACACTTTGGATGGTTGA [2d218],0.615
12,TACACTTGTTAAGACACTTTGGATGGGTTGA [3d617],0.244
13,TATCACTGTCGTAAGACATTTGGAGGGTTGA [3d1436],0.431
14,TATCCTTGTCGTAAGAACTTGGATGGGTTGA [3d1076],0.591
15,TATCCTTGTCGTAAGACATTGGATGGGTTGA [3d1090],0.772
16,TATACTTGTCTAAGACACTTTGGATGGGTTG [3d856],0.633
17,TACCTTGTCGTAAGACACTTTGGATGGGTTG [3d546],0.719
18,TATACTTGTCGTAAACACTTTGGTGGGTTGA [3d888],0.019
19,TATCCTGTCGTAAGACACTTTGGATGGGTTA [3d966],0.436
20,TACACTTGTCGTAAGACACTGGATGGGTTGA [3d714],0.191
21,TATCACTTTCGAAGACACTTTGGAGGGTTGA [3d1502],0.0243
22,TATCACTTGTCTAAGACACTTTGAGGGTTGA [3d1887],0.0527
23,TATCATTGCGTAAGACCTTTGGATGGGTTGA [3d1163],0.815

row,Sequence,fraction ligated
1,TTCACTGTCGTAAGACACTTTGGATGGGTTGA [2d28],0.795
2,TATCATTGTCGTAGACACTTTGGAGGGTTGA [3d1223],0.0919
3,TATCACTTTCGTAAACACTTTGGATGGGTTG [3d1528],0.776
4,TATACTTTCGTAAGACACTTGGATGGGTTGA [3d805],0.43
5,TATCACTTTCGTAAGACACTTGATGGGTTGA [3d1562],0.787
6,TATCCTTGTCGTAAGACACTTTGAGGGTTGA [3d1106],0.0265
7,TATCACTTGTCGTAAGACACTTGGAGGGTTGA [2d279],0.0154
8,TATCACTTGTCTAAGACATTTGGATGGGTTG [3d1877],0.824
9,TATCACTTGTCGTAAGACACTTTGTGGGTTA [3d2262],0.00904
10,TAACTTGTCGTAAGACACTTTGGATGGGTTA [3d526],0.0297
11,TATCACTTGTCTAAACACTTGGATGGGTTGA [3d1839],0.776
12,TATCATTGTCTAAGACCTTTGGATGGGTTGA [3d1192],0.758
13,TTCACTTGTCGTAAACACTTTGGTGGGTTGA [3d447],0.0202
14,TATCACTTGTCGTAAGACATTTGGAGGTTGA [3d2224],0.00439
15,TATCATTGTCTAAGACACTTTGGATGGTTGA [3d1198],0.169
16,TATCCTTGTCGAAGAACTTTGGATGGGTTGA [3d1032],0.772
17,TATCCTTGTCGTAGACCTTTGGATGGGTTGA [3d1046],0.773
18,ATCACTTGTCGTAAGACCTTTGGATGGTTGA [3d243],0.712
19,ATCACTTTCGTAAACACTTTGGATGGGTTGA [3d128],0.779
20,TATCACGTCGTAAGACACTTTGGATGGGTTGA [2d128],0.791
21,TTATTGTCGTAAGACACTTTGGATGGGTTGA [3d278],0.076
22,TATACTTGTCGTAAGACACTTTGATGGGTTGA [2d84],0.794
23,TATCACTGTCGTAAGACACTTGGTGGGTTGA [3d1442],0.692

row,Sequence,fraction ligated
1,TATACTTGTGAAGACACTTTGGATGGGTTGA [3d829],0.756
2,TATCCTGTCGAAGACACTTTGGATGGGTTGA [3d954],0.786
3,TACCTTGTCGTAGACACTTTGGATGGGTTGA [3d534],0.697
4,TATCACTTGTCGTAAGCACTTTATGGGTTGA [3d2135],0.134
5,TATACTGTCGTAAGACACTTTGGAGGGTTGA [3d792],0.042
6,TACCTTGTCGTAAGACACTTTGGATGGGTTGA [2d48],0.772
7,TATCACTTTCGTAAGACACTGGATGGGTTGA [3d1561],0.774
8,TATCACTTGTCGTAGACCTTTGGATGGGTTA [3d2026],0.798
9,TATCACTTGTTAAGACACTTTGGAGGGTTGA [3d1714],0.111
10,TTCACTTGTGTAAGACACTTTGATGGGTTGA [3d396],0.122
11,ATCCTTGTCTAAGACACTTTGGATGGGTTGA [3d71],0.716
12,TATACTTGTGTAAGACCTTTGGATGGGTTGA [3d834],0.721
13,TTCACTTGCGTAAGACACTTTGGATGGGTTG [3d386],0.571
14,TATCACTTGTCTAAGACACTTTATGGGTTGA [3d1885],0.171
15,TATCACTTCGTAGACACTTTGGATGGGTTGA [3d1314],0.783
16,TATCATTGTCGTAAGACCTTTGGATGGGTTA [3d1260],0.697
17,TATCACTTGTCGAAGACATTGGATGGGTTGA [3d1950],0.787
18,ATCCTTGTCGTAAGACACTTTGATGGGTTGA [3d80],0.71
19,TATCACTGCGTAAACACTTTGGATGGGTTGA [3d1331],0.838
20,TTCATTGCGTAAGACACTTTGGATGGGTTGA [3d319],0.11
